From patent US9526737B2, “Oxysterols for activation of hedgehog signaling, osteoinduction, antiadipogenesis, and Wnt signaling” (THE REGENTS OF THE UNIVERSITY OF CALIFORNIA, priority 2007, dated 2016)
Like-named read-outs stand apart in the source and are kept apart here.

Experiments:
[1] = tested on: bone sialoprotein (BSP) mRNA expression; assay: Q-RT-PCR for bone sialoprotein (BSP) mRNA expression; assay type: cell-based; conditions: M2-10B4 cells
Description: (§1) Total RNA was extracted with the RNA isolation kit from Stratagene (La Jolla, Calif.) according to the manufacturer's instructions. RNA was DNase-treated using the DNA-free kit from Ambion, Inc. (Austin, Tex.). 3 μg of RNA was reverse-transcribed using reverse transcriptase from Stratagene (La Jolla, Calif.) to make single stranded cDNA. The cDNAs were mixed with Qi SYBR Green Supermix from Bio-Rad Laboratories (Hercules, Calif.) for quantitative RT-PCR using a Bio-Rad I-cycler IQ quantitative thermocycler. All PCR samples were prepared in triplicate or quadruplicate. Each sample was added to duplicate wells of a 96-well plate. After 40 cycles of PCR, melt curves were analyzed in order to ensure primer specificity, and the identity of all PCR products were verified by sequencing and comparing with the complete mRNA sequence obtained from PubMed's GenBank. Fold changes in gene expression were calculated using the ΔΔCt method (14). […]
M2-10B4 cells were treated with control vehicle (C) or various doses (μM) of oxysterols (Oxy34 or Oxy49) as indicated. […] After 6 days of treatments, mRNA was extracted from cells and analyzed by Q-RT-PCR for BSP and GAPDH expression (See FIG. 17).
After 48 hours of treatment, RNA was isolated and analyzed for BSP expression by Q-RT-PCR as a measure of osteogenic differentiation (See FIG. 10). […]

[2] = tested on: M2-10B4 marrow stromal cells; assay: 45Ca incorporation assay (matrix mineralization); assay type: cell-based
Description: ^45Ca incorporation assay as a measure of matrix mineralization in cell monolayers was performed as previously described (45).
^45Ca incorporation assay (see Example above) was used to measure mineralization in M2 cells pre-treated with 1 μg/ml Dkk-1 or vehicle for 2 h, and then treated with control vehicle or 2.5 μM SS 12 days (See FIG. 2D).
^45Ca incorporation assay was used to measure mineralization in M2 cells pre-treated with various doses of LY, 1 μM Wm, or vehicle for 2 h, and then treated with 5 μM SS or control vehicle for 14 days (See FIG. 7C).
M2-10B4 cells were treated for 14 days with control vehicle (C) or various concentrations (μM) of oxysterols as indicated. SS refers to 20S-hydroxycholesterol+22S-hydroxycholesterol in combination. After 12 days with refeeding every 5th day, ^45Ca was added and on day 14, ^45Ca incorporation was measured (See FIG. 18).

[3] = tested on: M2-10B4 marrow stromal cells; assay: Alkaline phosphatase (ALP) activity assay
Description: The protocol is a modification of alkaline phosphatase assay kit from Sigma. Cells are cultured in 24-well tissue culture plates. After treatments with test agents, cells are rinsed twice with PBS and scraped into 200 ml of lysis buffer (0.2% NP-40 in 1 mM MgCl2) and sonicated for 10 seconds. Next, 1 ml of reaction mixture is added to each well. Reaction mixture is 221 alkaline buffer (Sigma): stock substrate solution (1:1). Stock substrate solution is prepared by dissolving 40 mg of Sigma 104 phosphatase substrate in 10 ml of ddH2O. After addition of reaction mixture to lysed cells, incubation is performed for 30 minutes at 37 C. […] The reaction is stopped by the addition of 12 ml of 1N NaOH to each well, and absorbance is determined at 405 nm. Alkaline phosphatase activity is calculated using p-nitrophenol as a standard, according to Sigma kit's instructions. Results are normalized to total protein in each well determined using the Bio-Rad protein assay solution (Bio-Rad Laboratories).
M2-10B4 marrow stromal cells were treated with oxysterols at various doses for 3 days after which they were collected and analyzed by calorimetric assay for alkaline phosphatase activity (a marker of osteoblastic differentiation) (Table 1); the alkaline phosphatase assay described above was used.
M2-10B4 marrow stromal cells were treated with oxysterols at various doses for 3 days after which they were collected and analyzed by colorimetric assay for alkaline phosphatase activity (a marker of osteoblastic differentiation) (Table 2); the alkaline phosphatase assay described above was used.
M2-10B4 bone marrow stromal cells were treated in culture with control vehicle (C) or various oxysterol (Oxy) molecules as indicated at either 1.25 (1) or 2.5 (2) μM concentrations. After 3 days of treatment, alkaline phosphatase activity as a measure of early osteogenic differentiation of cells was measured in whole cell lysates (See FIG. 9 and Table 3); the alkaline phosphatase assay described above was used.

[4] = tested on: marrow stromal cells; assay: Osteoinductive properties (osteoblast differentiation markers: ALP activity, osteocalcin mRNA, mineralization); assay type: cell-based; conditions: induction of osteoblast differentiation markers
From the text: Oxysterols discussed in this application include those designated as Oxy22, Oxy26, Oxy27, Oxy28, Oxy39, Oxy40, Oxy41, Oxy42, Oxy48, Oxy49, Oxy20, Oxy34, Oxy36, Oxy38, Oxy50, Oxy51, Oxy52, and Oxy53. At least the following oxysterols have been identified as osteoinductive: Oxy22, Oxy26, Oxy27, Oxy28, Oxy39, Oxy40, Oxy41, Oxy42, Oxy48, Oxy49, Oxy50, Oxy51, Oxy52, and Oxy53. The osteoinductive properties of these oxysterols is shown by their ability to induce the expression of various osteoblast differentiation markers, including alkaline phosphatase activity, osteocalcin mRNA expression, and mineralization. These oxysterols are activators of the hedgehog signaling pathway.

[5] = tested on: hedgehog signaling pathway; assay: Hedgehog signaling pathway activation (8X-Gli reporter, Gli 1 and Patched Q-RT-PCR, cyclopamine inhibition); assay type: cell-based; conditions: M2 cells
Description: M2-10B4 bone marrow stromal cells were transfected with an 8XGli luciferase reporter or the empty vector (pGL3b). Cells were subsequently treated with control vehicle, 5 μM Oxy49, or 400 ng/ml recombinant human sonic hedgehog (Shh) as positive control. After 48 hours of treatments, reporter luciferase activity was measured and normalized to Renilla luciferase activity (See FIG. 14). […] M2-10B4 bone marrow stromal cells were transfected with an 8XGli luciferase reporter or the empty vector (pGL3b). Cells were subsequently treated with control vehicle, 5 μM Oxy34, or 400 ng/ml recombinant human sonic hedgehog (Shh) as positive control. After 48 hours of treatments, reporter luciferase activity was measured and normalized to Renilla luciferase activity (See FIG. 15). […] After 48 hours of treatments, mRNA was extracted from cells and analyzed by Q-RT-PCR for expression of hedgehog target genes Gli 1 and Patched (See FIGS. 16A and 16B). […] Luciferase reporter activity using a reporter construct with 8X-Gli binding sites • 2. Q-RT-PCR analysis of the induction of hedgehog pathway target gene expression Gli 1 and Patched • 3.

[6] = tested on: Patched (Ptch) mRNA expression; assay: Q-RT-PCR for Patched (Ptch) mRNA expression; assay type: cell-based; conditions: M2 cells pre-treated 2 h with inhibitor, then 5 μM SS for 48 h
Description: as §1, with “(14). All primers were designed using the Beacon Designer software from Bio-Rad Laboratories (Hercules, Calif.).” for “(14).”
M2 cells were pre-treated for 2 h with Dkk-1 or vehicle. […] RNA was isolated and analyzed for Nkd2 (C), Wif-1 (D), and Ptch (E) expression (See FIGS. 5C-5E).

[7] = tested on: Naked Cuticle 2 (Nkd2) mRNA expression; assay type: cell-based; conditions: M2 cells pre-treated 2 h with inhibitor, then 5 μM SS for 48 h
Description: (§2) Total RNA was extracted with the RNA isolation kit from Stratagene (La Jolla, Calif.) according to the manufacturer's instructions. RNA was DNase-treated using the DNA-free kit from Ambion, Inc. (Austin, Tex.). 3 μg of RNA was reverse-transcribed using reverse transcriptase from Stratagene (La Jolla, Calif.) to make single stranded cDNA. The cDNAs were mixed with Qi SYBR Green Supermix from Bio-Rad Laboratories (Hercules, Calif.) for quantitative RT-PCR using a Bio-Rad I-cycler IQ quantitative thermocycler. All PCR samples were prepared in triplicate or quadruplicate. Each sample was added to duplicate wells of a 96-well plate. After 40 cycles of PCR, melt curves were analyzed in order to ensure primer specificity, and the identity of all PCR products were verified by sequencing and comparing with the complete mRNA sequence obtained from PubMed's GenBank. Fold changes in gene expression were calculated using the ΔΔCt method (14). All primers were designed using the Beacon Designer software from Bio-Rad Laboratories (Hercules, Calif.). Primers used are as follows: OCN (5′-[…]-3′ (SEQ ID NO: 1) and 5′-[…]-3′ (SEQ ID NO: 2)), Axin2(5′[…]-3′ (SEQ ID NO: 3) and 5′-[…]-3′ (SEQ ID NO: 4)), Cyclin D1(5′-[…]-3′ (SEQ ID NO: 5) and 5′-[…]-3′ (SEQ ID NO: 6)), NKD2 (5′-[…]-3′ (SEQ ID NO: 7) and 5′[…]-3′ (SEQ ID NO: 8)), WIF-1 (5′-[…]-3′ (SEQ ID NO: 9) and 5′-[…]-3′ (SEQ ID NO: 10)), and GAPDH (5′-[…]-3′ (SEQ ID NO: 11) and 5′-[…]-3′ (SEQ ID NO: 12)).
(§3) M2 cells were treated with 5 μM SS, 200 ng/ml Shh, or control vehicle for 48 h. RNA was isolated and analyzed by Q-RT-PCR for Nkd2 (E) and WIF-1 (F) expression (See FIGS. 4E and 4F).
(§4) M2 cells were pre-treated for 2 h with vehicle or cyclopamine (Cyc) at the concentrations indicated. Next, cells were treated with 5 μM SS or control vehicle for 48 h. RNA was isolated and analyzed for Nkd2 (A) and WIF-1 (B) expression by Q-RT-PCR (See FIGS. 5A and 5B).
(§5) M2 cells were pre-treated for 2 h with Dkk-1 or vehicle. Next, cells were treated with 5 μM SS or control vehicle for 48 h. RNA was isolated and analyzed for Nkd2 (C), Wif-1 (D), and Ptch (E) expression (See FIGS. 5C-5E).
(§6) M2 cells were pre-treated for 2 h with 5 μM LY, 2.5 μM Wm, or vehicle followed by treatment with 5 μM SS or control vehicle for 48 h. RNA was isolated and analyzed for Nkd2 (FIG. 7E) and Wif-1 (FIG. 7F) expression.

[8] = tested on: Wnt Inhibitory factor-1 (Wif-1) mRNA expression; assay type: cell-based; conditions: M2 cells pre-treated 2 h with inhibitor, then 5 μM SS for 48 h
Description: as §2, §3, §4, §5, §6

[9] = tested on: Runx2 DNA binding activity; assay: Runx2 DNA binding activity by EMSA analysis; assay type: cell-based; conditions: M2 cells
[10] = tested on: osteocalcin (OCN) mRNA expression; assay: Q-RT-PCR for osteocalcin (OCN) mRNA expression; assay type: cell-based; conditions: M2 cells pre-treated 2 h with inhibitor, then SS
Description: as §1, with “(14). All primers were designed using the Beacon Designer software from Bio-Rad Laboratories (Hercules, Calif.).” for “(14).”
M2 cells were pre-treated with vehicle or 1 μg/ml Dkk-1 for 2 h followed by treatment with control vehicle or 5 μM SS for 6 days. RNA was isolated and analyzed by Q-RT-PCR for OCN expression (See FIG. 2E).
RNA was analyzed for OCN expression by Q-RT-PCR and normalized to GAPDH (p<0.01 for Control versus SS and for SS versus SS+LY and SS+Wm) (See FIG. 7B).

[11] = M210B4, 72 h, read-out: Fold Induction in alkaline phosphatase activity compared to control untreated cells
[12] = M210B4, 72 h, read-out: Fold Induction in alkaline phosphatase activity over control untreated cells

In the case of `C=C(C)CCC[C@](C)(O)[C@H]1CC[C@H]2[C@@H]3C[C@H](O)[C@H]4C[C@@H](O)CC[C@]4(C)[C@H]3CC[C@@]21C` [Oxy49, (3S,5S,6S,8R,9S,10R,13S,14S,17S)-17-((S)-2-Hydroxy-6-methylhept-6-en-2-yl)-10,13-dimethylhexadecahydro-1H-cyclopenta[a]phenanthrene-3,6-diol], the BSP expression [1] is reported as “induce BSP expression”, the “Mineralization (45Ca incorporation)” value ([2]; M2-10B4 cells treated for 14 days) is reported as “increased mineralization” and the fold induction at 2.5 µM [3, 11] is reported as 170. For the same molecule, the fold induction at 5 µM [3, 11] was 204, the fold induction at 1.25 µM [3, 12] was 46 and the fold induction at 2.5 µM [3, 12] was 68. The Osteoinductive property [4] was “osteoinductive”.

With `COC[C@H]1OC(=O)c2coc3c2[C@@]1(C)C1=C(C3=O)[C@@H]2CCC(=O)[C@@]2(C)C[C@H]1OC(C)=O` [Wm, wortmannin] the “Inhibition of oxysterol-induced hedgehog pathway activation” value [5] was “did not inhibit”.

B1: Dkk-1: recombinant mouse Dickkopf related protein 1; LRP5/6 inhibitor, Wnt signaling inhibitor (protein, UniProt O54908 32-272, looked up)
Dickkopf-related protein 1: TLNSVLINSNAIKNLPPPLGGAGGQPGSAVSVAPGVLYEGGNKYQTLDNYQPYPCAEDEECGSDEYCSSPSRGAAGVGGVQICLACRKRRKRCMRHAMCCPGNYCKNGICMPSDHSHFPRGEIEESIIENLGNDHNAAAGDGYPRRTTLTSKIYHTKGQEGSVCLRSSDCAAGLCCARHFWSKICKPVLKEGQVCTKHKRKGSHGLEIFQRCYCGEGLACRIQKDHHQASNSSRLHTCQRH
For B1, the “Inhibition of oxysterol-induced Patched (Ptch) mRNA expression” value [6] was “did not inhibit”, the “Inhibition of oxysterol-induced mineralization (45Ca incorporation)” value ([2]; M2 cells pre-treated 2 h with inhibitor, then SS for 12-14 days) was “Complete and below baseline level inhibition” and the “Inhibition of oxysterol-induced Nkd2 expression” value [7] was “almost completely inhibited”. For the same molecule, the “Inhibition of oxysterol-induced Wif-1 expression” value [8] was “only minimally inhibited”, the “Inhibition of oxysterol-induced Runx2 DNA binding activity” value [9] was “did not inhibit” and the “Inhibition of BMP-2-induced ALP activity” value ([3]; M2 cells pre-treated 2 h with 1 or 2 μg/ml Dkk-1, then 50 ng/ml BMP-2 for 3 days) was “only significantly inhibited by using the higher concentration”. For the same molecule, the “Inhibition of Shh-induced ALP activity” value ([3]; M2 cells pre-treated 2 h with inhibitor, then 200 ng/ml Shh for 3 days) was “partially inhibited”, the “Inhibition of oxysterol-induced ALP activity” value ([3]; M2 cells pre-treated 2 h with inhibitor, then 2.5 μM SS for 3 days) was “partial but significant inhibition” and the “ALP activity, agent alone” value ([3]; M2 cells, Dkk-1 1 or 2 μg/ml without oxysterol) was “no observed effect”. For the same molecule, the “Inhibition of oxysterol (SS)-induced OCN mRNA expression” value [10] was “did not inhibit”.
